The values below come from US20200115460A1.

Test [1] has as its target IGF-I receptor (cell line of the PathHunter IGF1R Functional Assay, DiscoverX) (UniProt P08069). The test can be described thus: cell-based or functional assay.
The target in test [2] is insulin receptor (cell line of the PathHunter INSR Functional Assay, DiscoverX) (UniProt P06213). The test can be described thus: cell-based or functional assay.

In test [1], FLAG M2 antibody came in with an activation of the IGF-I receptor (PathHunter, solvent group = 100%) at 5 nM of 109% and an activation of the IGF-I receptor (PathHunter, solvent group = 100%) at 50 nM of 109%. Besides, in test [2], the activation of the insulin receptor (PathHunter, solvent group = 100%) at 5 nM turned out to be 104% and the activation of the insulin receptor (PathHunter, solvent group = 100%) at 50 nM was 111%.
In test [1], Insulin (ligand) showed an activation of the IGF-I receptor (PathHunter, solvent group = 100%) at 0.5 nM of 184%; an activation of the IGF-I receptor (PathHunter, solvent group = 100%) at 5 nM of 1240%; an activation of the IGF-I receptor (PathHunter, solvent group = 100%) at 50 nM of 4620%.
